Laboratory results reported in paper PMC10528150, “Mutant Cytochrome C as a Potential Detector of Superoxide Generation: Effect of Mutations on the Function and Properties” (Cells, 2023).

B1: cytochrome c wild type (recombinant horse heart CytC) (natural protein)
chain: not shown
modifications: heme c (hemoporphyrin type c, Fe ligated by His18 and Met80)
B2: cytochrome c with substitutions K8E/K27E/E62K/E69K/K72E/K86E/K87E/E90K (natural protein)
chain: not shown
modifications: heme c (hemoporphyrin type c)

Biological target: cytochrome c oxidase (ferrocytochrome c:oxygen oxidoreductase), solubilized complex
Experiment: cell-based or functional assay

Row | Binder | Activity in the cytochrome c oxidase reaction, % of WT
1 | B1 | 100%
2 | B2 | < 1%
